Results taken from patent US20180280504A1, “GLYCAN-INTERACTING COMPOUNDS AND METHODS OF USE” (SIAMAB THERAPEUTICS, INC., priority 2014, published 2018).
Values belong to the molecule of their own block, whether it stands above or below them.

Tests used:
[1] = tested on: MDA-MB-231 cells expressing cell-surface Neu5Ac-STn; experiment: Flow cytometry assay to quantify antibody internalization; format: cell-based, human; details: for % cells exhibiting 488 fluorescence: 4° C.
Procedure: For analysis, stably transfected variants of MDA-MB-231 cells (clone TAH3.P10) that express high levels of cell surface-bound Neu5Ac-STn are harvested using 10 mM EDTA and washed with PBS comprising 1% BSA before pelleting by light centrifugation. Cell numbers and viability are determined by trypan blue dye exclusion analysis and cell concentrations are adjusted to 5×10^6 cells/ml in PBS with 1% BSA. 50 μl of cells are added to each well of an assay plate. Cells are combined with 50 μl solutions of antibody or fluorescently-labeled antibody and incubated for 1 hour at 4° C. Following this incubation period, cells are washed with PBS to remove unbound antibody and aliquots are removed for incubation for various times (15, 30, 60 minutes) at 37° C. to allow bound antibody to internalize at a physiologically relevant temperature. After each incubation, cell surface-bound antibody is removed by treating cells with acidic medium (150 mM NaCl, pH=2.5) Cells treated with unlabeled antibody are washed with PBS and fixed with paraformaldehyde fixation buffer (PFA) containing 3% paraformaldehyde and 2% sucrose in PBS for 15 minutes at room temperature. These cells are rinsed again in PBS and treated with blocking buffer made up of PBS with 1% bovine serum albumin (BSA). Cells are incubated for 30 min at room temperature, rinsed in PBS and treated with secondary antibody (allophycocyanin-labeled goat-anti-mouse IgG) for 2 hours at room temperature. All cells are then washed with PBS and subjected to flow cytometry analysis wherein 10,000 events are recorded for each sample. Residual fluorescent signal in acid-treated samples is further quenched via treatment with trypan blue dye.
Flow cytometry analysis was carried out in order to quantify the extent of antibody internalization according to the procedure of Example 15. MDA-MB-231 cells expressing high levels of cell-surface bound Neu5Ac-STn were harvested using StemPro Accutase buffer and washed with PBS comprising 5% FBS before pelleting by light centrifugation. Cell numbers and viability were determined by trypan blue dye exclusion analysis and cell concentrations were adjusted to 5×10^6 cells/ml in PBS with 5% FBS. 50 μl of cells were added to each well of an assay plate. Cells were then combined with 50 μl solutions of antibody S3F or ALEXA FLUOR® 488-conjugated antibodies S3F, 7G9 or GB26.6 and incubated for 1 hour at 4° C. Following this incubation period, cells were washed with PBS to remove unbound antibody and aliquots were removed for incubation for various times (15, 30, 60 minutes) at 37° C. After each incubation, cells were treated with acidic medium (150 mM NaCl, pH=2.5) to remove surface-bound antibody. Cells treated with unlabeled S3F were washed with PBS 5% FCS. Secondary antibody (allophycocyanin-labeled goat-anti-mouse IgG) was added to the cells and incubated for 30 min at 4° C., rinsed in PBS 5% FBS and kept on ice until flow cytometry analysis. All cells were then washed with PBS and subjected to flow cytometry analysis wherein 10,000 events were recorded for each sample.
Culturing and harvesting of MDA-STn+ cells was performed according to Example 14. Staining of MDA-STn+ cells with S3F antibody included either unlabeled S3F or S3F directly labeled with ALEXA FLUOR® 488 (Thermo Fisher Scientific, Pittsburgh, Pa.). Stained control vials were kept at 4° C. until analysis was performed. Controls included a GB26.6 antibody negative control for STn binding, unstained control, and unlabeled S3F antibody followed by an APC secondary antibody. Vials for each experimental time point (15, 30 and 60 min) were incubated in complete media at 37° C. 5% CO2 to allow for antibody internalization. Immediately prior to analysis by flow cytometry, non-internalized antibody was stripped from the cell surface of experimental samples using 150 mM NaCl pH 2.5 (acidic buffer).

[2] = tested on: STn on bovine submaxillary mucin (BSM); experiment: Anti-STn BSM ELISA, non-treated and periodate-treated wells; format: binding; details: for hybridoma screening: specificity for STn: BSM ELISA without and after periodate treatment
Procedure: Anti-STn serum titer is determined using a murine anti-STn bovine submaxillary mucin (BSM) ELISA together with serum profiles observed by glycan microarray. 96-well plates are coated with 1 μg/well of BSM and incubated overnight at 4° C. O-acetylation of BSM antigen is removed by treating wells with 0.1 M sodium hydroxide. Specific binding to STn is determined by treatment of wells with sodium periodate. Periodate treatment destroys the […] side chain of sialic acid; therefore antibodies raised against STn should not bind to periodate-treated wells. Wells are blocked with PBS 1% ovalbumin (OVA). Serum samples to be assayed are serially diluted in PBS 1% OVA. A commercially available mouse anti-STn monoclonal antibody, 3F1 (SBH Sciences, Natick, Mass.) is used as a positive control. This antibody is also serially diluted in PBS with 1% OVA. A pool of serum from naïve wild type mice is used for the preparation of negative control samples. Detection of anti-STn antibodies present in serum is determined using an HRP-conjugated polyclonal goat anti-mouse IgG antibody (Jackson Immunoresearch, West Grove, Pa.). The reaction is stopped by addition of sulfuric acid (1.6 M). Optical densities are measured at 490 nm using a Spectramax microplate reader (Molecular Devices, Sunnyvale, Calif.). The serum titer is obtained by comparison of OD values with a cutoff value calculated as two standard deviations above the mean of optical density values of the negative control. Sample tests are considered positive if the mean optical density value is greater than the cutoff value.
Binding affinities of 18D2 and 18C7 to STn were compared to commercially available anti-STn antibodies using the BSM ELISA assay described in Example 2. Commercial anti-STn antibodies used for comparison included 3F1 (SBH Sciences, Natick, Mass.,) TAG-72 clone B72.3 (Thermo Fisher Scientific, Waltham, Mass.,) TAG-72 clone CC49 (Santa Cruz Biotechnology, Santa Cruz, Calif.) as well as a negative control antibody against c-myc (Thermo Fisher Scientific, Waltham, Mass.). Each antibody was titrated using a 7-point, 1:5 serial dilution starting from 100 nM. Titrated antibodies were added to BSM ELISA plates containing wells that were non-treated or treated with sodium periodate. Antibody binding was determined using HRP-conjugated polyclonal goat anti-mouse IgG antibody (Jackson Immunoresearch Laboratories, West Grove, Pa.). The reaction was developed using an HRP substrate and stopped with 1.6 M sulfuric acid. Optical densities were measured at 490 nm using a Spectramax microplate reader. […] The half maximal effective concentration (EC50) for each antibody was calculated using a non-linear regression analysis carried out on periodate subtracted data.

B1: S3F: 3F1 variable domains combined with IgG2a constant domains; heavy chain SEQ ID NO: 63, light chain SEQ ID NO: 64 (antibody)
heavy: QVQLQQSDAELVKPGASVKISCKASGYTFTDHAIHWVKQKPEQGLDWIGYISPGNGDIKYNEKFKDKVTLTADKSSSTACMHLNSLTSEDSAVYFCKRSLLALDYWGQGTTLTVSSAKTTAPSVYPLAPVCGDTTGSSVTLGCLVKGYFPEPVTLTWNSGSLSSGVHTFPAVLQSDLYTLSSSVTVTSSTWPSQSITCNVAHPASSTKVDKKIEPRGPTIKPCPPCKCPAPNLLGGPSVFIFPPKIKDVLMISLSPIVTCVVVDVSEDDPDVQISWFVNNVEVHTAQTQTHREDYNSTLRVVSALPIQHQDWMSGKEFKCKVNNKDLPAPIERTISKPKGSVRAPQVYVLPPPEEEMTKKQVTLTCMVTDFMPEDIYVEWTNNGKTELNYKNTEPVLDSDGSYFMYSKLRVEKKNWVERNSYSCSVVHEGLHNHHTTKSFSRTPGK
light: DIVMTQSHKFMSTSVGDRVSITCKASQDVGTNIAWYQQKPGRSPKVLIYSASTRHTGVPDRFTGSGSGTDFTLTISNVQSEDLTDYFCQQYSSFPLTFGVGTKLELKRADAAPTVSIFPPSSEQLTSGGASVVCFLNNFYPKDINVKWKIDGSERQNGVLNSWTDQDSKDSTYSMSSTLTLTKDEYERHNSYTCEATHKTSTSPIVKSFNRNEC
% cells exhibiting 488 fluorescence ([1]; ALEXA FLUOR 488-conjugated antibody, then 37° C. 15 min, acid): 22.5%
% cells exhibiting 488 fluorescence ([1]; ALEXA FLUOR 488-conjugated antibody, then 37° C. 15 min, no acid): 56.6%
% cells exhibiting 488 fluorescence ([1]; ALEXA FLUOR 488-conjugated antibody, then 37° C. 30 min, acid): 25.9%
% cells exhibiting 488 fluorescence ([1]; ALEXA FLUOR 488-conjugated antibody, then 37° C. 30 min, no acid): 53.1%
% cells exhibiting 488 fluorescence ([1]; ALEXA FLUOR 488-conjugated antibody, then 37° C. 60 min, acid): 31.5%
% cells exhibiting 488 fluorescence ([1]; ALEXA FLUOR 488-conjugated antibody, then 37° C. 60 min, no acid): 50.9%
% cells exhibiting 488 fluorescence ([1]; ALEXA FLUOR 488-conjugated antibody, acid): 9.29%
% cells exhibiting 488 fluorescence ([1]; ALEXA FLUOR 488-conjugated antibody, no acid): 57.9%
% of cells exhibiting fluorescence after the staining period ([1]; ALEXA FLUOR 488-conjugated antibody, no acid, range over samples): 50-57%
internalization (conclusion) ([1]; Neu5Ac-STn-overexpressing MDA-MB-231 cells): can be internalized

B2: 10A5: anti-STn mouse monoclonal, IgG2c κ, from mouse #4406; VH SEQ ID NO: 6, VL SEQ ID NO: 7 (antibody, V domains shown)
VH: QVQLKESGPGLVAPSQSLSITCTVSGFSLTSYGVSWVRQPPGKGLEWLGVIWGDGSTNYHSSLISRLSISKDNSKSQVFLKLNSLQTDDTATYYCARAFVYWGQGTLVTVSA
VL: QIVLTQSPAIMSASPGEKVTMTCSASSSVSYIHWYQQKSGTSPKRWIYDTSKLASGVPARFSGSGSGTSYSLTISSMEAEDAATYYCQQWSSNPPMLTFGAGTKLELK
hybridoma screening: specificity for STn [2]: specific for STn

B3: 8C11: anti-STn mouse monoclonal, IgG2b κ, from mouse #4407; VH SEQ ID NO: 8, VL SEQ ID NO: 9 (antibody, V domains shown)
VH: QVQLKESGPGLVAPSQSLSITCTVSGFSLTSYGVSWVRQPPGKGLEWLGVIWGDGSTNYHSALISRLIISKDNSKSQVFLKLNSLQTDDTATYYCTKGFTYWGQGTLVTVSA
VL: QIVLTQSPAIMSASPGEKVTMTCSASSSVSYMHWYQQKSGTSPKRWIFDTSKLASGVPARFSGSGSGTSYSLTISSMEAEDAATYYCQQWSSNLLTFGAGTKLELK
hybridoma screening: specificity for STn [2]: specific for STn

B4: 2D4: anti-STn mouse monoclonal, IgG2b κ, from mouse #4407; VH SEQ ID NO: 10, VL SEQ ID NO: 11 (antibody, V domains shown)
VH: QVQLQESGPGLVAPSQSLSITCTVSGFSLISYGVNWVRQPPGKGLEWLGVIWGDGSTNYQSALISRLIISKDNSKSQVFLKLNSLQTDDTATYYCTKGFAYWGQGTLVTVSA
VL: QIVLTQSPAIMSASPGEKVTMTCSASSSVSYMHWFQQKSGTSPKRWIYDTSKLASGVPARFSGSGSGTSYSLTISSMEAEDAATYYCQQWSSNLLTFGAGTKLELK
hybridoma screening: specificity for STn [2]: specific for STn

binding to non-treated wells ([2]; BSM ELISA, wells not treated with sodium periodate): bound non-treated wells
binding to periodate-treated wells ([2]; BSM ELISA, wells treated with sodium periodate): did not bind to periodate-treated wells
EC50 ([2]; non-linear regression on periodate subtracted data, 7-point 1:5 dilution from 100 nM): 62.5 nM
B5: 18C7: anti-STn mouse monoclonal, IgG2c κ, from mouse #4436; VH SEQ ID NO: 4, VL SEQ ID NO: 5 (antibody, V domains shown)
VH: QVTLKESGPGILQPSQTLSLTCSFSGFSLSTFGMGVGWIRQPSGKGLEWLAHIWWDDDKYYNPALKSRLTISKDTSKNQVFLKIANVDTADTATYYCARIAYYYGSERDYWGQGTTLTVSS
VL: QIVLTQSPAIMSASPGEKVTMTCSASSSISYMHWYHQKPGTSPKRWIYDTSKLASGVPARFSGSGSGTSYSLTISSMEAEDAATYYCHQRSSYTFGGGTKLEIKR
hybridoma screening: specificity for STn [2]: specific for STn
